Molecular target: DDX3X 132-607 (human) (UniProt O00571)
Test: MST
Conditions: 20 nM labelled RNA, DDX3X 2-fold dilutions from 19 uM, 10 min at room temperature, measured at 25 C, assay buffer not stated (protein SEC buffer 50 mM …)

DDX3X 132-607 (human), sequence (O00571 132-607): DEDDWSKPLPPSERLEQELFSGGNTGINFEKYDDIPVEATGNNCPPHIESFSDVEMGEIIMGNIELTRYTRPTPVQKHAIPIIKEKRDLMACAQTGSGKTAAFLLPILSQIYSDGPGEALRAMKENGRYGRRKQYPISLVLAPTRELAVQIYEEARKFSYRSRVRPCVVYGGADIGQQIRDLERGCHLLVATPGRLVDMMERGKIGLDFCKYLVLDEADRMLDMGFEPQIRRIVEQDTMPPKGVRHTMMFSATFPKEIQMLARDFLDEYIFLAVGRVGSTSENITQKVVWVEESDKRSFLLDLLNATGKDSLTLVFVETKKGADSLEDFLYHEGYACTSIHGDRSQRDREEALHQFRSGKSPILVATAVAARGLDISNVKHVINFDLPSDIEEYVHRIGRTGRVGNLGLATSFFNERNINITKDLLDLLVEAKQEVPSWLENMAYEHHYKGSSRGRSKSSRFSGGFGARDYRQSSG

Sequence	Kd [µM]
GGAGAAGUUUUAUCGUGUGAACUUCUUGGCUUAGUAUCGUUGAGAAGAAUCGAGAGAUUAGUGCAGUUUAAACAGUUUUUUAGAACGGAAGAACAACCAUGACUAAAAAACCAGGAGGGCCCGGAAAAAACCGGGCCAUCAAUAUGCUGAAACGCGGAU [JEV 5' TR]	1.66
AGUUGUUACUGUUGCUGACUCAGACUGCGACAGUUCGAGUUUGAAGCGAAAGCUAGCAACAGUAUCAACAGGUUUUAUUUGGAUUUGGAAACGAGAGUUUCUGGUCAUGAAAAACCCAAAAAAGAAAUCCGGAGGAUUCCGGAUUGUCAAUAUGCUAAAACG [ZIKV 5' TR 1-163]	7.05
